Earlier results on one substance are cited in PMC7042059.

The series has as its target Pyruvate kinase M2 (Homo sapiens) (UniProt P14618). The note with it: cited from earlier work.

Pyruvate kinase M2, sequence (P14618 2-531): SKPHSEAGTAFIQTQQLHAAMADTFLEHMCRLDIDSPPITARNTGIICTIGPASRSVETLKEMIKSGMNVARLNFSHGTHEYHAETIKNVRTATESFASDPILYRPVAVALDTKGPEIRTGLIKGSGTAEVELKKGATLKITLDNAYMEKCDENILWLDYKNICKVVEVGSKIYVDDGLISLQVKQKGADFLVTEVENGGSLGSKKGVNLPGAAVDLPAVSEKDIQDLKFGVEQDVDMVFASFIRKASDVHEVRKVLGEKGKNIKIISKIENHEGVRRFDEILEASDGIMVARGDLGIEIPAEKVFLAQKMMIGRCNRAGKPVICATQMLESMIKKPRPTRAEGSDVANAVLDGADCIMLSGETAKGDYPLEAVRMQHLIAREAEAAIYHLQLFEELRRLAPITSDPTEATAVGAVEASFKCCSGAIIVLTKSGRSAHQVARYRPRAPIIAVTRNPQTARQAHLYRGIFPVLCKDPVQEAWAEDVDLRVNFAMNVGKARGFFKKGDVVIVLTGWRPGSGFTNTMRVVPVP

What is called Kd is the constant that tells how readily two partners part at equilibrium. For “Pyruvate kinase M2 (from UniProt P14618)”, the Kd is 1 µM.
